Data: patent US6670167B1, “Catalytic domain of the human effector cell cycle checkpoint protein kinase materials and methods for identification of inhibitors thereof” (Agouron Pharmaceuticals, Inc., priority 1999, dated 2003)
Where no end group is shown, it is not given here.

Molecular target: T1, Chk1 kinase (Homo sapiens, UniProt O14757)
T1 construct: 2 (KH289); made in house; host or cells: baculovirus (Bac-to-Bac, pFastBac-Nde) in Hi-5 insect cells
T1 sequence (O14757 1-289): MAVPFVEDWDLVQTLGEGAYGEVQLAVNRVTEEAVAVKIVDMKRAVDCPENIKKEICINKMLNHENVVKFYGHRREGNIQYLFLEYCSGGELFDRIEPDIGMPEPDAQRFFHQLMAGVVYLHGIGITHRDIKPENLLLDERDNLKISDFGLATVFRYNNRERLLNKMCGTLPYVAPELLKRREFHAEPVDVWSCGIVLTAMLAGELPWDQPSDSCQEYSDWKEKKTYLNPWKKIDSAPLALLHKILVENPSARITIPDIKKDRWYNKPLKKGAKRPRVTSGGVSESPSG
Assay: Peptide substrates tested for activity as Chk1 substrates
Format: biochemical
Conditions: Syntide 2 = 100%
Protocol: The enzymatic activity of a kinase is measured by its ability to catalyze the transfer of a phosphate residue from a nucleoside triphosphate to an amino acid side chain in a selected protein target. The conversion of ATP to ADP generally accompanies the catalytic reaction. Herein, a synthetic substrate peptide, Syntide-2, having amino acid sequence PLARTLSVAGLPGKK (SEQ ID NO. 11) was utilized. The production of ADP from ATP that accompanies phosphoryl transfer to the substrate was coupled to oxidation of NADH using phosphoenolpyruvate (PEP) through the actions of pyruvate kinase (PK) and lactic dehydrogenase (LDH). The oxidation of NADH was monitored by following the decrease of absorbance at 340 nm (e340=6.22 cm−1 mM−1) using a HP8452 spectrophotometer. Typical reaction solutions contained: 4 mM PEP, 0.15 mM NADH, 28 units of LDH/mL, 16 units of PK/mL, 3 mM DTT, 0.125 mM Syntide-2, 0.15 mM ATP and 25 mM MgCl2 in 50 mM TRIS pH 7.5; 400 mM NaCl. Assays were initiated with 10 nM of kinase domain of Chk1, KH289. Ki values were determined by measuring initial enzyme activity in the presence of varying concentrations of inhibitors. The data were analyzed using Enzyme Kinetic and Kaleidagraph software.
The following substrates were tested for peptide content and activity:
As described in detail below, an aspect of the invention involves a nonradioactive ELISA based assay suitable for high throughput screening (HTS). The development of the ELISA based CHK1 kinase HTS assay was first initiated with a monoclonal anti-phosphoserine antibody called Clone PSR-45, supplied by Sigma. New Chk peptide substrates, analogues of Syntide2, were synthesized to validate this assay. Biotin-Syntide-2 (SEQ ID NO. 12), and N-terminus acetylated Syntide-2 (SEQ ID NO. 13) and the expected peptide products after CHK phosphorylation, serine phosphorylated Syntide 2 (SEQ ID NO. 15), and serine phosphorylated biotin-Syntide 2 (SEQ ID NO. 16) were synthesized for assay development. […]

Activity (peptide substrate) [%] | Substance
72 | Ac-PLARTLSVAGLPG-AGAGAGAK (Ac-PLARTLSVAGLPGAGAGAGAK) [Syntide 4, N-terminus acetylated analogue of Syntide 2]
100 | PLARTLSVAGLPGKK [Syntide 2, synthetic substrate peptide, reference compound]

Substance | Activity (peptide substrate) [%]
KAGAG-PLARTLSVAGLPG-Biotin-K [Syntide 3] | 67
